Results on one molecule are retold here after article PMC4319926, “Deciphering the Stepwise Binding Mode of HRG1β to HER3 by Surface Plasmon Resonance and Interaction Map” (PLoS ONE, 2015).

By koff is commonly meant the first-order rate constant of dissociation. As usually defined, the kon is a measure of how fast the partners come together. The stoichiometry N is the number of molecules, sites or subunits per partner or assembly.

Details in all cases: both partners purified
One assay addresses T1, HER3-Avi-biotin (human, UniProt P21860 20-643, single biotin on the C-terminal Avi-Tag).
T1 construct: HER3 (ErbB3) extracellular domain with C-terminal Avi-Tag, singly biotinylated, MW 70 kDa; Printed MW 70 kDa; It was captured through streptavidin on a Biotin CAPture chip; also called bi-ECD3; biotinylated HER3-Avi; source: gift of pRED, Roche Diagnostics GmbH (Dr. Jürgen Schanzer); not shown: Avi-Tag, C-terminal, kept
The assay is described as follows: SPR; assay D: Biacore T200, 25°C; HER3-Avi-biotin captured via streptavidin on CAP chip, no mAb208; HRG1β injected at 105-1.3 nM, 60 µl/min, 5 min association, 10 min dissociation; same sample buffer; evaluated by 1:1 Langmuir fit, two-state reaction model and Interaction Map. Background: Surface plasmon resonance follows binding to a sensor surface in real time, without labels.

Assay [1] deals with T2, human HER3 extracellular domain (human, UniProt P21860 20-643).
T2 construct: HER3 (ErbB3) receptor extracellular domain, human, MW 68 kDa; Printed MW 68 kDa; also called ECD3; HER3-ECD; source: from Dr. Birgit Bossenmaier, Roche Diagnostics GmbH, Penzberg
The assay is described as follows: SPR; assay C: Biacore T200, 25°C; HER3 bound to mAb208 captured by immobilised rabbit anti-mouse antibody on CM5; HRG1β injected at 105-1.3 nM, 60 µl/min, 5 min association, 10 min dissociation; 10 mM HEPES pH 7.4, 150 mM NaCl, 1 mM EDTA, Tween 20, 1 mg/ml carboxymethyldextran; evaluated by 1:1 Langmuir fit (apparent), two-state reaction model and Interaction Map.

Assay [2] has as its target T2, human HER3 extracellular domain. The assay is described as above. This is another data set of the same source.

T1 sequence (P21860 20-643): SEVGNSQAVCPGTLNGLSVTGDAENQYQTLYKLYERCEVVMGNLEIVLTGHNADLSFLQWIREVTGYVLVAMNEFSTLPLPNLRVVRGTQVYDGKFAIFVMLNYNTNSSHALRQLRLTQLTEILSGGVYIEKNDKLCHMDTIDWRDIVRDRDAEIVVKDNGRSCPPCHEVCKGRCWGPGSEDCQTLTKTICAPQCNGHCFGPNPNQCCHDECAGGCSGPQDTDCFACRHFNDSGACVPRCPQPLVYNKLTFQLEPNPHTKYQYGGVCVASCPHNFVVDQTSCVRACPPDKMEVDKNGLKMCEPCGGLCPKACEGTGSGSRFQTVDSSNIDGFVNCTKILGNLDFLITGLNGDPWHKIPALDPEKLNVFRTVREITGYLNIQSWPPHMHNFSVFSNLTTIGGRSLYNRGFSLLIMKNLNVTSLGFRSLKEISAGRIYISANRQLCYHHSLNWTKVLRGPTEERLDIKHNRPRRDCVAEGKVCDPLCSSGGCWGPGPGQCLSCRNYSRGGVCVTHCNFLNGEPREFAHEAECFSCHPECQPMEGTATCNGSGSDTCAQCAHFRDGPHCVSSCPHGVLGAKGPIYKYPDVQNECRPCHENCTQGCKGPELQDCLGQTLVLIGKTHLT
T2 sequence (P21860 20-643): as above

B1: human heregulin β1 (ligand, UniProt Q02297-6 20-246, looked up)
chain: SGKKPESAAGSQSPALPPRLKEMKSQESAAGSKLVLRCETSSEYSSLRFKWFKNGNELNRKNKPQNIKIQKKPGKSELRINKASLADSGEYMCKVISKLGNDSASANITIVESNEIITGMPASTEGAYVSSESPIRISVSTEGANTSSSTSTSTTGTSHLVKCAEKEKTFCVNGGECFMVKDLSNPSRYLCKCPNEFTGDRCQNYVMASFYKHLGIEFMEAEELYQK
notes: heregulin β1 (neuregulin-1, beta 1 isoform), human, MW 25 kDa; The printed MW of 25 kDa is larger than an EGF-like domain alone; also called HRG1β; Heregulin 1 beta; source: from Dr. Birgit Bossenmaier, Roche Diagnostics GmbH, Penzberg
As for B1, in the assay with HER3-Avi-biotin, the Kd is 0.38 nM, the koff came out at 0.0046 s⁻¹, the association rate constant (kon) worked out at 1.2e+07 M⁻¹ s⁻¹ and the “stoichiometry N” value is 0.84. Besides, the “stoichiometry N” value in assay [1] is 0.5. In assay [2], the Kd was 0.33 nM, the koff came to 0.04 s⁻¹, the kon was found to be 1.2e+08 M⁻¹ s⁻¹ and the “stoichiometry N” value turned out to be 0.56.
